Assay: yeast display, Sf9 membrane polyspecificity reagent, FACS + sequencing; frameworks hold sequencing errors
How it was run: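 Synthetic nanobody libraries on Saccharomyces cerevisiae BJ5465 were galactose-induced for 36–48 hours, stained 1 hour at 4 °C with 10% biotinylated, detergent-solubilized Sf9 membrane reagent and enriched on streptavidin microbeads. FACS then separated cells into low and high (top ~1%) gates by anti-HA (expression) and streptavidin (reagent binding) fluorescence. Genes were colony-PCR amplified, MiSeq 2 × 250 sequenced and CDR-length filtered. A clone's polyreactivity label is that of its gate of origin.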

Question: With “QVQLVESGGGLVQAGGSLRLSCAASGYTFDAYAMGWYRQAPGKERELVAAITTNGGSTYYADSVKGRFTISRDNAKNTVFLQMNSLIPEDTAVFYCKAEYWYEGRYPYDYWGQGTQVTVSS” as the sequence, how does the “polyreactivity (PSR sort gate)” value read?
Answer: The value was “low polyreactivity”.

Question: For “QVQLVESGGGLVQAGGSLRLSCAASGYTFDYYAMGRYRQAPGNERELVAAITNSGGSTYYADSVKGRFTISRDNAKKTVYLQMNSLKPEDPAVYYCAALYYVKPGQRYDYWGQGTQVTVSS”, which “polyreactivity (PSR sort gate)” value is on record?
Answer: The value was “high polyreactivity”.

Question: With “QVQLVESGGGLVQAGGSLRLSCAASGYTFFEYTMGWYRQAPGKVREFVAAISWSGGITYYADSVKGRFTISRDNAKNTVYLQMNSLKPEDTAVYYCNADIYSPTPIDYNYWGQGTQVTVSS” as the sequence, how does the “polyreactivity (PSR sort gate)” value read?
Answer: The value was “low polyreactivity”.

Question: With “QVQLVESGGGLVQAGGSLRLSCAASGYTFGGYAMGWYRQAPGKERELVAAISGSGVRTYYADSVKGRFTISRDNAKNTVYLQMNSLKPEDTAVYYCAKRVRYPGDRYYYWGQGTQVTVSS” as the sequence, how does the “polyreactivity (PSR sort gate)” value read?
Answer: Its value is “high polyreactivity”.

Question: Which “polyreactivity (PSR sort gate)” value does the source give for “QVQLVESGGGLVQAGGSLRLSCAASGYTFGHYAMGWYRQAPGKERELVAVITSGGSTNYADSVKGRFTISRDNAKNTVYLQMNSLKPEDTAVYYCAADLYFYYVWIRDYWGQGTQVTVSS” here?
Answer: The value was “low polyreactivity”.

Question: For “QVQLVESGGGLVQAGGSLRLSCAASGYTFGIYAMGWYRQAPGKAREFVAAIRWSDTSTSYADSVKWRFTISRDNAKNTVYLQMNSLKPEDTAVYNCAADTFYLYDYWGQGTQVTVSS”, which “polyreactivity (PSR sort gate)” value is on record?
Answer: The value was “low polyreactivity”.

Question: For “QVQLVESGGGLVQAGGSLRLSCAASGYTFGLYTMGWYRQAPGKEREFVATIDWSDGGTHYADSVKGRFTISRDNAKNTVYLQMNSLKPEDTAVYYCNADWYAYPYGYWGQGTQVTVSS”, which “polyreactivity (PSR sort gate)” value is on record?
Answer: Its value is “low polyreactivity”.

Question: With “QVQLVESGGGLVQAGGSLRLSCAASGYTFGTYDKGWYRQAPGKERELVAAISIGGSTNYADSVKGRFTISRDNAKNTVYLQMNSLKPEDTAVYYCAAEVNVGTLLLSVIVEDGDYWGQGTQVTVSS” as the sequence, how does the “polyreactivity (PSR sort gate)” value read?
Answer: Its value is “low polyreactivity”.

Question: For “QVQLVESGGGLVQAGGSLRLSCAASGYTFGTYTMGWYRMARWKERELVAGIDSGGTTNYADSVKGRFTISRDNATNTVYLQMHSLKPEHTAVYYSTAYHLLIVDYYLGLYYYRGNYYWGQGTQVTVSS”, which “polyreactivity (PSR sort gate)” value is on record?
Answer: The value was “low polyreactivity”.

Question: Which “polyreactivity (PSR sort gate)” value does the source give for “QVQLVESGGGLVQAGGSLRLSCAASGYTFGTYTMGWYRQAPGKERELVAGIDSGGTTNYADSVKGRFTISRDNAKNTVYLKMNRVKPEDTAVYYCTAYHLLIVDYYLGMYYYGGNYYWGQGNQVTVSS” here?
Answer: Its value is “low polyreactivity”.

Question: Which “polyreactivity (PSR sort gate)” value does the source give for “QVQLVESGGGLVQAGGSLRLSCAASGYTFKSYVMGWYRQAPGKERELVAAITSIGGSTYYADSVKGRFTISRDNAKNTVYLQMNRLKPEDTAVYYCAARSFRFYPRMHDWGQGTQVTVSS” here?
Answer: The value was “high polyreactivity”.

Question: For “QVQLVESGGGLVQAGGSLRLSCAASGYTFKTYAMGWYRQAPVKERELVAAISGSGGSTYYADSVKGRFTISRDNAKNTVYLQMNSLKPEDTAVYYCNASPTTTPNFWRYDYWGQGTQVTVSS”, which “polyreactivity (PSR sort gate)” value is on record?
Answer: The value was “high polyreactivity”.

Question: For “QVQLVESGGGLVQAGGSLRLSCAASGYTFKTYPMGSYRQAPGKERELVAAISGSGGSTYYADSVKVRFTISRDNAKNTVYLQMNSLNPEDTAVYYCNASPTTTPNFWRYDYWGQGTQVTVSS”, which “polyreactivity (PSR sort gate)” value is on record?
Answer: Its value is “high polyreactivity”.

Question: For “QVQLVESGGGLVQAGGSLRLSCAASGYTFLGYAMGWSRQAPGKERELVAAIRRSGGRTYYADSVKGRFTISRDNAKNTVYLQMNSLKPEDTAVYYCAKGYVGEYDYWGQGTQVTVSS”, which “polyreactivity (PSR sort gate)” value is on record?
Answer: The value was “high polyreactivity”.

Question: For “QVQLVESGGGLVQAGGSLRLSCAASGYTFLHYAMGWYRQAPGKERELVAAISGSGGRTYYADSVKGRFTISRDNAKNTVYLQMNSLKPEDTAVYYCAAPYSSRNYYYWGQGTQVTVSS”, which “polyreactivity (PSR sort gate)” value is on record?
Answer: Its value is “high polyreactivity”.

Question: Which “polyreactivity (PSR sort gate)” value does the source give for “QVQLVESGGGLVQAGGSLRLSCAASGYTFNGYAMGWYRQAPGKERELVAAISWSGGSTYYADSVKGRFTISRDNAKNTFYLQMNSLKPEDTAVYYCARRGPSGVYNDGGYGLDDDYWGQGTQVTVSS” here?
Answer: Its value is “low polyreactivity”.

Question: With “QVQLVESGGGLVQAGGSLRLSCAASGYTFPQYAMGWYRQAPGKERELVAAITRRGGSTYYADSVKGRFTISRDNAKNTVYLQMNSLKPEDSAVYNCAADSYPYSHGGDYWGQGTQVTVSS” as the sequence, how does the “polyreactivity (PSR sort gate)” value read?
Answer: The value was “high polyreactivity”.

Question: For “QVQLVESGGGLVQAGGSLRLSCAASGYTFPQYAMRWYRQAPGKERELVAAITRRGGSTYYADSVKGRFTISRDNAKNTVYLQMNSLNPEDTAVYYGSARYYWGQGTQVTVSS”, which “polyreactivity (PSR sort gate)” value is on record?
Answer: Its value is “high polyreactivity”.

Question: With “QVQLVESGGGLVQAGGSLRLSCAASGYTFPSNAMGWYRQAPGKERDWVAAISSGGRTNYADSVKGRFTISRDNAKNTVYLQMNSLKPEDTAVYYCNADGGPGYPRAYDYWGQGTQVTVSS” as the sequence, how does the “polyreactivity (PSR sort gate)” value read?
Answer: Its value is “low polyreactivity”.

Question: With “QVQLVESGGGLVQAGGSLRLSCAASGYTFQRYAMGRYRQAPGKERELVATISKRGGSTYYADSVKGRFTISRDNAKNTVYLQMNSLKPDDTAVYYCATATPEYRGYWPWQYAGGDYWGQGTQVTVSS” as the sequence, how does the “polyreactivity (PSR sort gate)” value read?
Answer: The value was “high polyreactivity”.

Question: Which “polyreactivity (PSR sort gate)” value does the source give for “QVQLVESGGGLVQAGGSLRLSCAASGYTFRFNAMGWYRQAPGKERELVARISKSGGSTYYADSVKGRFTISRDNAKNTVYLQMNSLKPEDTAVYYCAAKDYVWGQGTQVTVSS” here?
Answer: Its value is “low polyreactivity”.

Question: Which “polyreactivity (PSR sort gate)” value does the source give for “QVQLVESGGGLVQAGGSLRLSCAASGYTFRGYAMGWSRQAPGKERELVAAISWSGGRTYYADSVKGRFTISRDNAKYTVYLQMNSLKPEDTAVYYCAAPGQHSWGQGTQVTVSS” here?
Answer: The value was “high polyreactivity”.

Question: Which “polyreactivity (PSR sort gate)” value does the source give for “QVQLVESGGGLVQAGGSLRLSCAASGYTFRSNVMGWYRQAPGKERELVAAISRGTRTKYADSVKGRFTISRDNAKNTVYLQMNSLKPEDTAVYYCAADTGTGLDWGQGTQVTVSS” here?
Answer: Its value is “high polyreactivity”.

Question: For “QVQLVESGGGLVQAGGSLRLSCAASGYTFRSYLGWYRQAPGKEREFVADISTSVTNTYYADSVKGRFTISRDNAKNTVYLQMISLKPEDTAVYYCAAGVQSVYNGEPGIILDFDYWGQGTQVTVSS”, which “polyreactivity (PSR sort gate)” value is on record?
Answer: The value was “low polyreactivity”.

Question: For “QVQLVESGGGLVQAGGSLRLSCAASGYTFRTNVMGWYRQAPGTERELVATINWRGGSTYYADSVKGRFTISRDYAKNTVYLLINSLKPEDTAVYYCAADGLSNVRQMDYWGQGTQVTVSS”, which “polyreactivity (PSR sort gate)” value is on record?
Answer: The value was “low polyreactivity”.

Question: With “QVQLVESGGGLVQAGGSLRLSCAASGYTFRVYTMGWYRQAPGTERELVAAISRRGSRTYYADSVKGRFTISRDNAKNTVYLQMNSLKPEDTAVYYCAAGIPYPDDYWGQGSQVTVSS” as the sequence, how does the “polyreactivity (PSR sort gate)” value read?
Answer: Its value is “high polyreactivity”.

Question: For “QVQLVESGGGLVQAGGSLRLSCAASGYTFRYNAMGWYKQAPWKDRELVATITRGGSTNYADSVKGRFTISRDNAKNTVYLQMNSLKPEDTEVYYCNKEAAPLGFVPSYYGRDYWGQGTQVTVSS”, which “polyreactivity (PSR sort gate)” value is on record?
Answer: The value was “low polyreactivity”.

Question: For “QVQLVESGGGLVQAGGSLRLSCAASGYTFRYYAMGWYRQAPGKERELVAAISSSGGNTYYADSVKGRFTISRDNAKNTVYLQMNSLIPEDTAVYYCAARRYQYPGHSLGYYYTDYYWGQGTQVTVSS”, which “polyreactivity (PSR sort gate)” value is on record?
Answer: The value was “low polyreactivity”.

Question: Which “polyreactivity (PSR sort gate)” value does the source give for “QVQLVESGGGLVQAGGSLRLSCAASGYTFRYYAMGWYRQAPGKERELVARITGRAGSTYYADSVKGRFTISRDNAKNTVYLQMNSLKPEDTAVYYSAASIREGFYWGQGTQVTVSS” here?
Answer: The value was “high polyreactivity”.

Question: For “QVQLVESGGGLVQAGGSLRLSCAASGYTFRYYAMVWYRQAPGKEREMVAAINGGDITNYADSVKGRFTISRDNAKNTVYLQMNSLKPVDTAVYYCAADGEDSLWTCYDYDYWGQGTQVTVSS”, which “polyreactivity (PSR sort gate)” value is on record?
Answer: Its value is “low polyreactivity”.

Question: Which “polyreactivity (PSR sort gate)” value does the source give for “QVQLVESGGGLVQAGGSLRLSCAASGYTFSFNAMGWYRQAPGKERELVAAINRGTSTNYADSVKGRFTISRDNAKNTVYLQMNSLKPEDTAVYYCAAGFRRSAGRYDLDYWGQGTQVTVSS” here?
Answer: Its value is “high polyreactivity”.

Question: For “QVQLVESGGGLVQAGGSLRLSCAASGYTFSHYAMGWYRQAPGKERELVAGITWSGGSTYYADSVKGRFTISRDNAKNTVYLQMNSLKPEDTSVYYCAAKYYWYYSYSGIPLFDYWGHGTQVTVSS”, which “polyreactivity (PSR sort gate)” value is on record?
Answer: The value was “low polyreactivity”.

Question: Which “polyreactivity (PSR sort gate)” value does the source give for “QVQLVESGGGLVQAGGSLRLSCAASGYTFSHYAMGWYRQAPGKERELVAGITWSGGSTYYADSVKVRFTISRDNAKNTVYVQMNSLKPEDTSVYYCAAKYYWYYSYSGIPLFDYWGQGTQVTVSS” here?
Answer: The value was “low polyreactivity”.

Question: For “QVQLVESGGGLVQAGGSLRLSCAASGYTFSVNAMGWYRQAPGKESELVATITSSGGGTYYADSVKGRFTISRDNAKNTVYLQMNSLKPEDTAVYYCAADGYWYGDIYPSDYRWYDYWGQGTQVTVSS”, which “polyreactivity (PSR sort gate)” value is on record?
Answer: The value was “low polyreactivity”.

Question: With “QVQLVESGGGLVQAGGSLRLSCAASGYTFSVNVMGWYRQAPGKERELVAAISGRGGRTYYADSVKGRFTISRDNAKNTVYLQMNSLKPEDTAVYYCAAVRGKPGRISYPYDYWGQGTQVTVSS” as the sequence, how does the “polyreactivity (PSR sort gate)” value read?
Answer: The value was “high polyreactivity”.

Question: With “QVQLVESGGGLVQAGGSLRLSCAASGYTFSWYAMGWYRQAPRKERELVAGIDTSGGSTYYADSVKGRFTISRDNAKNTVYLQMNSLKPEDTAVYYCAAGLLWYSWGFWYYEYGYWGQGTQVTVSS” as the sequence, how does the “polyreactivity (PSR sort gate)” value read?
Answer: The value was “low polyreactivity”.

Question: With “QVQLVESGGGLVQAGGSLRLSCAASGYTFSYYAMGWYRQAPGKERELVAAISVRGDSTYYADSVKGRFTISRDYAKNTVYLLMNSLKPEDTAVYYCAARVVRSSYVRYHYWGQGTQVTVSS” as the sequence, how does the “polyreactivity (PSR sort gate)” value read?
Answer: Its value is “high polyreactivity”.

Question: Which “polyreactivity (PSR sort gate)” value does the source give for “QVQLVESGGGLVQAGGSLRLSCAASGYTFTIYAMGWSRQAPGKERESVASISIDGSTYYADSVKGRFTISRDNAKNTVYLQMNSLKPEDTAGYYCAADYYYYNPGFDYWGQGTQVTVSS” here?
Answer: The value was “low polyreactivity”.

Question: With “QVQLVESGGGLVQAGGSLRLSCAASGYTFTIYAMGWYRQAPGKERELVASISIDGSTYYADSVKGRFTISRDNAKNTVYLQMNSLKPEDTAVYYCAADYYYYTPGFDYWGQGTQVTVSS” as the sequence, how does the “polyreactivity (PSR sort gate)” value read?
Answer: The value was “low polyreactivity”.

Question: Which “polyreactivity (PSR sort gate)” value does the source give for “QVQLVESGGGLVQAGGSLRLSCAASGYTFVDYAMGWYRQAPGKERELVAAISSSGARTYYAYSVKGRFTISRDNAKNSVYLQMNSLKAEDTAVYYCNTPRPYEITTPEYYYWGQGTQVTVSS” here?
Answer: The value was “high polyreactivity”.

Reference: the nanobody polyreactivity screen of Harvey et al. (2022)
